Experimental data as given in the supplement of paper PMC9170038.

System: MS2 coat protein
Test: apparent KD of MS2 coat protein; higher = weaker reporter binding
Details: Eterna round: R107
How it was run: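 SNAP-549-labelled MS2 coat protein was titrated onto designed RNA switches that had been transcribed on-chip from Illumina sequencing clusters. Amounts doubled from 0.7 or 1.5 nM to 3 µM in 100 mM Tris-HCl pH 7.5, 80 mM KCl, 4 mM MgCl2, with constant ligand or without. Apparent KD is the median per design of normalised cluster binding-curve fits.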

[1] = input ligand: theophylline 20 uM
[2] = input ligand: theophylline 2 mM
[3] = input ligand: tryptophan 2.4 mM

| Sequence | apparent KD of MS2 coat protein (input ligand: arginine 13.2 mM) [nM] | apparent KD of MS2 coat protein [1] [nM] | apparent KD of MS2 coat protein [2] [nM] | apparent KD of MS2 coat protein [3] [nM] | apparent KD of MS2 coat protein (input ligand: none) [nM] |
| --- | --- | --- | --- | --- | --- |
| GAUCGAAAUAACGUCUAGGAAAACUAGACGCGAGGACCGGUACGGCCGCCACUCGGGUGGCACAUGAGGAUCACCCAUGUAGAUC [#SwitchBubble 5 #GuTurnoff #MS2 3'] | 69.4 | 110 | 100 |  |  |
| GAUGAACUAUAUGAUACCAGACAACAUGAGGAUCACCCAUGUGAUAGUCGUCCUCUGCCUGUCCCUUGGCAGCGUAUAGUUUAUC [XTheo B #19] | 30.7 | 74.7 |  | 21.2 |  |
| GAUGAACUAUAUGAUACCAGACAACAUGAGGAUCACCCAUGUGUAUGUCGUCCUCUGCCUGUCCCUUGGCAGCGUAUAGUUUAUC [XTheo B #17] | 36.8 | 70.1 |  | 16.1 |  |
| GAUGAACUAUUUGAUACCAGACAACAUGAGGAUCACCCAUGUGCGCGUCGUCCUCUGCCUGUCCCUUGGCAGCGGAUAGUUUAUC [XTheo B #12] | 32.5 | 124 |  | 34.9 |  |
| GAUGAUAUUGCAGAUACCAGACACAUGAGGAUCACCCAUGUCGUUGGGUCGCUGGGUCGUGUCCCUUGGCAGCUGCGAUAUCAUC [#04 Exclusion-TheophyllineB] | 28 | 52.6 |  | 31 |  |
| GAUUAAACAUGAGGAUCACCCAUGUAUAUACGAGGACCGGUACGGCCGCCACUCGUAAACGAGUAUCCUCGAAUAAACAUGAUAA [AK 2.1 SS Trypt (A)] | 44 | 113 | 182 |  |  |
| GAUUACAUGAGGAUCACCCAUGUAACUGAAGGAGCGGUAAUAAAGCCAGGUAGGUCGCGGAACAACAUGUGGAUCACCCAUGUAA [#13 Exclusion - Arginine A] | 33.7 | 51.6 | 43.7 | 32.7 | 43.5 |
| GCACAAGAUGGAAGGAGCGCUGGUAAAAGUCACAUGAGGAUCACCCAUGUGCUCCUUGCCGAGCAGGUAGGUCGCCAUCUUGUGC [SSAB NP+V+V2 #4] | 19.5 | 31.8 | 33.2 | 29.8 | 27.8 |
| GCACAUGAGGAUCACCCAUGUACAACUGAAGGAGCGAGACAGAACUCAGGUAGGUCGCAGACUGCACAAUUGCGGACGACAUGGG [Exclusion Arginine A GF21] | 25.8 | 44.1 | 40.9 | 30.1 | 34.2 |
| GCACCAGGUACGGAUACCAGAGCAAGCCAAAUGAGUGAACUUGAGGAUCACCCAAGUUUGCUCCCUUGGCAGCCGUACCUGGUGC [ETB NP+V+V2 #12 Diff Apt, +-Same Structure] | 7.29 | 11.4 | 29.2 | 8.49 | 9.39 |
| GCACUACAUGAGGAUCACCCAUGUGCAGAUACCAGAGGUGUAUGCCUCCCUUGGCAGCUGAGUAGGUCUGGAGGGCUAUUGGUUU [Same State Theophylline A GF14] | 17.8 | 27.8 |  | 18.2 |  |
| GCAUCCUAGUCGGCCGCCACUGCAAUUGUAAUACUGCUACAUGAGGAUCACCCAUGUCCAUGUAGCAGGACCGGGACUAGGAUGC [SS Tryp B #16] | 142 | 728 | 1240 |  |  |
| GCAUCCUAGUCGGCCGCCACUGCACGAUCAGUGGCAGAUCGUCAACAUGAGGAUCACCCAUGUAGCAGGACCGGGACUAGGAUGC [(Trp1)-(TM)''-(TM)'-(Ms2)-(Trp2)_Design3] | 18.5 | 21.9 | 20.9 |  |  |
| GCAUUAUUAUUAGAUACCAGUGUCGCAGGCGACAUGAGGAUCACCCAUGUAAAGUUACUCCACCCUUGGCAGCUAGUUCGACUAC [theeternabot_sameState_MS2_Theo_B_21] | 56 | 124 |  | 101 |  |
| GCCAUCGGCGAAAGCCGAUGGUAUACAGAAGGAGCGCACGAAAGUGCAGGUAGGUCGCUGAACAUGAGGAUCACCCAUGUAAUAA [#29 Same State - Arginine A] | 19.6 | 24.9 | 22.9 | 19.4 | 20.2 |
| GCCCUUGGCAGCGAUACCAGCCAAAAUUAAAAUAAACCUCUACAUGAGGAUCACCCAUGUGGCCCUUGGCAGCGAUACCAGCAAA [#ReversedDoubbleAptamer 1] | 33.7 | 49.7 |  | 43.5 |  |
| GCCGGGCCUUCGGCCGCCACUGAGAGAGUCGUGUGAACAUGAGGAUCACCCAUGUAAUAUAUAUACAGGACCGGGAGGGCCCGGC [4.V] | 12.6 | 17.8 | 14.9 | 10.4 | 16.3 |

| Sequence | apparent KD of MS2 coat protein (input ligand: arginine 13.2 mM) [nM] | apparent KD of MS2 coat protein [1] [nM] | apparent KD of MS2 coat protein [2] [nM] | apparent KD of MS2 coat protein [3] [nM] | apparent KD of MS2 coat protein (input ligand: none) [nM] |
| --- | --- | --- | --- | --- | --- |
| GCCUCAUGUAGAAGGAGCGUCAGAAGCUACAGACAUGAGGAUCACCCAUGUUAGUUGAUCUGACAGGUAGGUCGCUACAGCAGGA [Arg B SS t7] | 26.7 | 44.9 | 41.1 | 34.9 | 37 |
| GCGAUACAUGAGGAUCACCCAUGUGCAGAUACCAGAGGUGCAUGCCUCCCUUGGCAGCUGCGACGCUCUGGCAUCUUGUGGGAUG [Same State Theophylline A GF20] | 37.6 | 86.4 |  | 56.9 |  |
| GCGAUGGAGCGAAGGAGCGGCUAAAUGUAACACAUGAGGAUCACCCAUGUUCCAAGAUGUGGCCAGGUAGGUCGCGCUCCAUCGC [SSAB NP+V+V2 #15] | 61.8 | 229 | 185 | 144 | 175 |
| GCGAUGGAGCGAAGGAGCGGCUGUGACUACAUGAGGAUCACCCAUGUACGAUCGUAAGGUAGCCAGGUAGGUCGCGCUCCAUCGC [SSAB NP+V+V2 #17] | 18.7 | 41.8 | 41.8 | 26.2 | 29.3 |
| GCGGACAUGAGGAUCACCCAUGUAAAUCCUCGAGGACCGGUACGGCCGCCACUCGAACGAGUGGCACGCGAGUGCGCACUCGCGU [aDa] | 21.8 | 38.4 | 29.7 |  |  |
| GCGGUGGUCGGAAGGAGCGACAUGAGGAUCACCCAUGUCUCCCGUUAUGGGAGUUCCUUAGGUCAGGUAGGUCGCCGACUGCCGC [#1 Exclusion - Arginine B Attempt #21 (Inspired by Omei)] | 105 | 234 | 260 | 227 | 195 |
| GCGUCGGUCGGAAGGAGCGACAUGAGGAUCACCCAUGUCUCCCGUUAUGGGAGUUCCUUAGGUCAGGUAGGUCGCCGACGGACGC [#1 Exclusion - Arginine B Attempt #19 (Inspired by Omei)] | 63.8 | 190 | 216 | 196 | 170 |
| GCUACACAGGACCGUACUAAGGAUUCGCCUCGAGGACCGGUACGGCCGCCACUCGUUGCGCGACAUGAGGAUCACCCAUGUGUUC [theeternabot_exclusion_MS2_Trp_A_33] | 31.1 | 48.3 | 50.7 |  |  |
| GCUACAUGAGGAUCACCCAUGUAUGCGAGCCGAGGACCGGUACGGCCGCCACUCGCUUAACAUGAGGAUCACCCAUGUUUCUCGG [SSTA DOUBLE!!! :-D #16] | 69.9 | 193 | 254 |  |  |
| GCUACAUGAGGAUCACCCAUGUAUGCGAGUCGAGGACCGGUACGGCCGCCACUCGCUUAACAUGAGGAUCACCCAUGUUACUCGC [SSTA DOUBLE!!! :-D #19] | 56 | 106 | 88.7 |  |  |
| GCUAGGUCUACGGCCGCCACUAGACGUGGGUAAGACAUGAGGAUCACCCAUGUACUACAGGCGGAUAGGACCGGGUAGACCUAGC [SSTB NP+V+V2 #13 +-Same Structure] | 69.3 | 159 | 101 |  |  |
| GCUGCUUUGGGAAGGAGCGCUGCGUUAUCAUGUUGGACAUGAGGAUCACCCAUGUAAAUGUAGCAGGUAGGUCGCUUAGGGCAGC [EAP NP+V+V2 #15] | 40.8 | 46 | 29.7 | 37.1 | 31.8 |
| GCUGGGUGCGCAAGGACCUGGCGUUGCGAUACCAGCACGGUAACGUGCCCUUGGCAGCGCACAUGAGGAUCACCCAUGUGGUGCG [#1 Exclusion - Theophylline A Attempt #21 (HarryS)] | 18.7 | 45.8 |  | 22.5 |  |
| GCUGUAAGUGCAGAUACCAGCGUGUUAUAUUUCUAAUGACAUGAGGAUCACCCAUGUAAAUGCCCUUGGCAGCUGCACUUACAGC [SSTHB #7] | 13.2 | 16.7 |  | 16.2 |  |
| GCUUGGGUCGCACGGCCCUGGCGGUGCGAUACCAGCACGGUAACGUGCCCUUGGCAGCGCACAUGAGGAUCACCCAUGUGGUGCG [#1 Exclusion - Theophylline A Attempt #23 (HarryS)] | 9.42 | 25.6 | 264 | 12.4 | 12.6 |
| GGAACGAUCACUUCUUUAUCUAAGGCGGAUACCAGUCCUCGGUUUGACCCUUGGCAGCCGACAACAUGAGGAUCACCCAUGUUCU [theeternabot_exclusion_MS2_Theo_A_25] | 12.5 | 18.9 |  | 15.6 |  |
